Experiment: soluble on expression in E. coli; label from the status in PepcDB or PDB records

Q: Which “soluble on expression in E. coli” value does the source give for “ALNQMNNLMTQEATGLKILCAPDKDSSFVIYEDDGETMDYANGGYLKTVLDIKAGEQTVLSFRNEGEYETAVEDIYLDVIHREKAPYWVKADGHELPHFLHRKKFEAAQEGWYYSQSLKSVQIKYKNPKKDYEVIVSFEQFDMIGM” here?
A: Its value is “not soluble”.

Q: With “SLKSLNHISLLCRSVEESISFYQNVLGFLPIRRPDSFDFDGAWLFGHGIGIHLLQSPEPEKLLKKTEINPKDNHISFQCESMEAVEKKLKEMEIEYVRAVVEEGGIQVDQLFFHDPDAFMIEICNCDSLPVIPLAGEMARSCSRLNIRQLVQPTQIHEG” as the sequence, how does the “soluble on expression in E. coli” value read?
A: The value was “soluble”.

Q: For “MAKGVAVLSSSEGVAGTILFTQEGDGPTTVTGNISGLKPGLHGFHVHALGDTTNGCMSTGPHFNPAGKEHGSPEDETRHAGDLGNITVGDDGTACFTIVDKQIPLTGPHSIIGRAVVVHADPDDLGKGGHELSKSTGNAGGRIACGIIGLQG”, which “soluble on expression in E. coli” value is on record?
A: Its value is “soluble”.

Q: Which “soluble on expression in E. coli” value does the source give for “MKKPNHSGSGQIRIIGGQWRGRKLPVPDSPGLRPTTDRVRETLFNWLAPVIVDAQCLDCFAGSGALGLEALSRYAAGATLIEMDRVVSQQLIKNLATLKAGNARVVNSNAMSFLAQKGTPHNIVFVDPPFRRGLLEETINLLEDNGWLADEALIYVESEVENGLPTVPANWSLHREKVAGQVAYRLYQHEAQGESDAD” here?
A: Its value is “not soluble”.

Q: With “MASQGFSVYVGNVPYQGTEEEIGNYFAAVGHVNNVRIVYDRETGRPRGFAFVEFSEEAGAQRAVEQLNGVAFNGRNLRVNYANK” as the sequence, how does the “soluble on expression in E. coli” value read?
A: The value was “soluble”.

Q: For “GMEQLQKRKIYDTTASNASTGILNGKSSNVLNWDDVRFSWAYPLYKNMLANFWTPFEINMSHDAKQFPTLTETEQEAFKKIIGLLAFLDSVQTDYSMRAAEYLTDSSLAALMSVLSFQEVVHNQSYSYVLSSLVPKATQDEIFEYWKHDDVLKERNEFIIDGYEKFVDNPTPKTFLESIVYDVILEGLNFYSGFAFFYNLARNQKMVSTSTMINYINRDEQLHVYLFTNIFKELLVEFPELNTEETKTFVKTTLMKAADLEKDWFRYIIGDKIPGINPEDMETYISFIANKRAVQLGMEKPYPEIKHNPMKWIRAYEDVNSGKSDFFEQKSRQYAKVSADNGFDEL”, which “soluble on expression in E. coli” value is on record?
A: Its value is “soluble”.

Q: For “MFFIGIFGIEEKAKVIRQIDVEICPFCTRKGSYTLFKVYNYLHFFFIPVLRWNTRYFIQTSCCSKVYLITNPQLAHDLEYGKDVPITLADVELFRNLQGMYQEGIDSDFCPNCGNRVSKNFLYCPYCGQKLELEHHHHHH”, which “soluble on expression in E. coli” value is on record?
A: The value was “not soluble”.

Q: Which “soluble on expression in E. coli” value does the source give for “MGSDKIHHHHHHMTAPKIIDMQALRIFLAAAKDQNMSIAASKLGLTQSAVSQAIGQLEEQFGIKLLDRNRRPLTLTSAGYVLYERGEQLVSAALNLKGAVLEAGHGVRPAIRLGLVDSVATTCGTSIIKQLMPRVAQLKLQTGLSFDVGAALIDRRVDLAITSEPMHRENGLVRYRVLTEQFVVIFSPGLEVADRENTNLALLSAQLPMIRYRSQSHLGRQAETVLRRADLEIPQFLEVDTADTLTSMVAGGLGWALTTPLCLLQAQEHAKRVGIGFLQSSGDSRSIYLLARGGKFDSLIKDTFDITVSVLKEECLARLAYIHPSLDRHAMMGEWPGIAGHSKTTGARRQPDISSEGIE” here?
A: The value was “not soluble”.

Q: With “MSSGLEDNLQLLGGNVTLLEQEAQKLANETKAGVYVVTTDSSTPASQMAKTYLADKVGAKNNGVVLVINMNLRKVYIWATGNLKYYLPSSRIEKTLDIVQPELTDNNYYQAVSGFFDQVSKYYQAGLEHHHHHH” as the sequence, how does the “soluble on expression in E. coli” value read?
A: The value was “not soluble”.

Q: Which “soluble on expression in E. coli” value does the source give for “MSLETETMSQDLMQRGKAIKLAVFDVDGVLTDGRLYFMEDGSEIKTFNTLDGQGIKMLIASGVTTAIISGRKTAIVERRAKSLGIEHLFQGREDKLVVLDKLLAELQLGYEQVAYLGDDLPDLPVIRRVGLGMAVANAASFVREHAHGITRARGGEGAAREFCELILSAQGNLEAAHSVYLEGHHHHHH” here?
A: The value was “soluble”.

Q: Which “soluble on expression in E. coli” value does the source give for “MSFVKKTKNFFGLDGEADPYMEHSDAYYDEPRYEPAPAYSAPRYEEPIYASARPRAARPMPTHIVPVRLLTYSDAAIKVGDPFRDGDAVVFDMSDMHKGEAKRIIDFAAGLCFALRGQMRKLDGRIFALVPESASVDENDLKHAAGLIHLEHHHHHH” here?
A: Its value is “not soluble”.

Q: Which “soluble on expression in E. coli” value does the source give for “MSLGKIRFGIVGTSNIANIFLRAASRVKDFELVAVYSRNLEKAREFGTLYGASIFFDDLEQMAKSKDIDAVYIASPNALHSKQTITCLKHKKHVLCEKSLASNLKEVKSMIKTAKDNNVLLMEAMRITCVPNFKAVKENLYKIGKIRRFFGSYCQYSSRYDKYKNGIIENAFKKELSNGALMDIGVYCIHPMVNLFGAPKTVKAVSHILQTGVDGEGSAVFQYDDMDAIIQYSKVADSYIPSEIQGEEGSIIIEKLNLFEKAIIKYRDGREEDISIPKEKAEEKPREIEGMYYELVEFISLINNNKIESNINSHENSIIVMEIMDEIRRQSSIVYPADSEGHHHHHH” here?
A: Its value is “soluble”.

Q: With “MSLKIAVIGCGAMGSIYAAKLAAAGEQVLAVDRHRPSVERINRDGLRVTGPGCDQVVPLRASTGAVDETMDLVVLAVKAADVEAAARQALPMLGPDTAVLTIQNGLGSAETVAGVVGAQRVAVGIASGFGASRVAPGHVHHNAMRAMRFGPYSSLPHARVESIARTWAHAGFDAAAVTDIAAMQWEKLICNVAYSAPCALTGMTVGQVMDDAEMGPVSRAAATEAWSVARASGVAIAVADAVEHVRAFGAQMPDAKPSALLDHEARRVSEIDVINGAVPRQGARVGVDAPVNATLTAVVKSIERRWREGHHHHHH” as the sequence, how does the “soluble on expression in E. coli” value read?
A: The value was “not soluble”.

Q: With “MGSSHHHHHHSSGRENLYFQGHMTRSAEPRVLQFCHGYDGPFLDCARQYASLFAGTPYKVTTVFLTGRSDPEVAARCASDEVLFLEYGSRDIRGLKLKAIRDLREIARSRDFRFCIAHRFKPIWIASLATRLPIVGVHHAFGDYQRLSRKVFAGLMSKRLSLLAVSDAVRDDIRRCLPKWPAERIETLYNRIDVAALQAEQVERLSARRQLRLPDEAWVVGNVGRLHPDKDQATLLRGFAAALPRLPQNSLLAILGSGRLEEQLKDLACELGIGERVLFLGQVEEARRYFKAFDAFALSSDHEPFGMVLLEAMVAGVPLIATACGGAREVVEGVGILFPLGDETALAEGLTHLAALDRRQREACARLMLERLETRFSDAAVRREFWRLPTIAGFASESAC” as the sequence, how does the “soluble on expression in E. coli” value read?
A: Its value is “soluble”.

Q: With “GMSFENYFPLWNDLNTAQKKLISDNLITQHVKKGTIIHNGNMDCTGLLLVKSGQLRTYILSDEGREITLYRLFDMDMCLLSASCIMRSIQFEVTIEAEKDTDLWIIPAEIYKGIMKDSAPVANYTNELMATRFSDVMWLIEQIMWKSLDKRVASFLLEETSIEGTNELKITHETIANHLGSHREVITRMLRYFQVEGLVKLSRGKITILDSKRLETLQRS” as the sequence, how does the “soluble on expression in E. coli” value read?
A: Its value is “soluble”.

Q: For “MRDTIPVTILSGSLGAGKTTLLNHLLTEAGDRDIAVLVNDMGTVNVDAELIAEGSELDVDDGVAELSNGCICCELQDDLETAVVRLADDRDFDALVVESSGISEPAPVARLFTTESRVAALYRVDTLVTVLDTRLFLDSFAGETPERRGSGEASADGDGDDTEADGADRPLSDLMVEQVELSNLVVLNKTDLCTDEEMDEAEELVRALQPDAETIRTTFSQVDPDRLFDRALFDQTEISDLPGWKRALAESGHGHGEGSHDHGGDSHETDAHEGDTGHGHDDHHHPEEVYGVTSFTYRRRRPFHPDRLAEVLQDLPSGVVRSKGTVWLAGSERRVVIGQAGPSIRAEAQGPWIASLPEVEQDMYRSNRPELDWHDEHGDRRTELVFIGTDYDESALRTALDDALVTDEEWTESESLTGPFPAEQGEEAVIRSP”, which “soluble on expression in E. coli” value is on record?
A: Its value is “not soluble”.

Q: Which “soluble on expression in E. coli” value does the source give for “MNKVSVVLPTYNCGTYVGVAVESVLQQTYSNYELIIVNDGSTDETDQALAPYLCNNGHIRYIKQGNKGHAGARNTGIRAATGDVIAFIDSDDKWLPEKLGEQVQAMEEDPEVGLVHCNVYGFGENQEVQVRGPLLTQEQLQGYSGYIFDNLYFRKIIITTTTVMIRKSCIDDVGMFDENMTRYGSEDRELFLRILWKYKARYVNKPLAMYRNRSDSEGQNYERMIKGQEYVYEKITSLYGLPQSSKRAVMSKMYQEWAREFYAKGRFADGLTNQVKAIRANPIDMNAYFALKRYARFLFSRATLEHHHHHH” here?
A: Its value is “not soluble”.

Q: With “AHHHHHHASAKWVCKICGYIYDEDAGDPDNGISPGTKFEELPDDWVCPICGAPKSEFEKLEDGSGTREIIIDCYLHDMCEGLNIMTVRGSAYLLVGQNVYPLIEGIVPPTLHFYIKEGYLDIYGFWRVEGEEHAAHIRVAIDKVHVVGTSIIVEPHGALENFDASVVIKLDASEKDLEQLKKIINEEKFWTKEEHGEVISTYLEKHLREKRKKKE” as the sequence, how does the “soluble on expression in E. coli” value read?
A: The value was “soluble”.

Q: For “MSLKGTDRIKVLHMSDFHIDPRYATGSEGNCTSGLCCRRGNPVESLNSNYTVSVPAPRFGYFLCDTPWALGAAAVEAIPVLTGTDEDDAFNMTIFTGDMVSHDPYYELSRDYIEYTETALYDLWKQTLNPTSPLYAAIGNHDSYQQAFDAPSSLPGKLRKQSSWNYEHLAGLWESEGWIDGEVAQKVKTHYGAYSIQHATNLKIITINTDLWYRANIFAYINSTHPDNFGFLKFLAEELQEAEDCNSRAYIVGHVLSGYDGTNPLPGPTDIFYQIIDRYSHVIAGLFWGHTHEDQHMIYYANNGTKMSAETAQNVGWIGPSITPLTDLNSGFRLYEVDAETWDILDAHTWYSNVSTYSSLDGQLEVGPSYVYEYNTRQAYGGNISWPDNAPLNATWWHLVSQDMENDGGALVELYNAHQGKMSTLSPNCTSAECIEAKVCYLRSGSGTLALDNCKTGYGSVQEGHHHHHH”, which “soluble on expression in E. coli” value is on record?
A: The value was “not soluble”.

Q: For “MTKISERNIKVARKNVCKNIQRLNKKLSNKIKNEEAALPDIIAGTHGTPIEKLLTLYKLSDPIFTAIRPFTACRYGCSACCHYKVDLLPIEAELIAISLGQAPLPLPTTFQNGHGKRCPFLSKNGQCNIYSIRPMACRRHFMFTNSDYWCNPVHSEDIKIKMLGFSGIIEAYINIANQDGRYSPENIRDIRDYFTAGIDADVNARELDSELEHHHHHH”, which “soluble on expression in E. coli” value is on record?
A: Its value is “not soluble”.

Q: Which “soluble on expression in E. coli” value does the source give for “MDYKTCPFHLVFLYSINPREPRLRKKIYYMMETESRLVVSHALIMYDYNQEGELPRMHGGYLKRFAKRATKRPDPFFQPTQIHDIDNDVSDMSECEKECPFAVPAQAADDGSLYLQLLDMEFWNDRNRQLHFLVNKPSLIESLGCLNNRVPALPPATTGKAAFVFFIDGLEVDARNLTCDGLVPWSENTSTNPHGITKRPKSAKQALALNREGQLRIWKTPSSHRSDLIEFQLHVYTATLPRCPRLRKKVTYVLKNGHQIGNAMIIYWYTEPGEMPAPVNVSTMSSAQEYSLQRLPPHIREDVLRLLARMTPAEVAKVILEKYGIQVNTKMLYYVRRREIMAATDGIRDAEDDHDPYELKNEMIVSAAAGDFVDDWTTDTAGASAEASEGGSRKKNVHLEEMLDERELQVSHTEEIQQPSSSQQQIQLPYRKAKYQEPKNFGQQSSGLPLSQSGMARGTSRNEALFRIAKNSFGSATDNETFDLLFKMLFEKSEHRLLQIVNHTFGVEIMAGEEMDNGEMHLHMAPDGAIVEEIVEEEVIGTVGDDVNLEEEVHENEPKVYTGEKQINDVLEQVVVEEPNHHDDHPPHELLEEDALVNPDDVIVDPNQLIIHDDDDQRQQNIQ” here?
A: Its value is “not soluble”.

Q: For “GPGSMEWSSQSALPGVEGSPGYGRLCSATSGGVGAFQQFSPATAATVGDTTSVPTEAPSSVSITVGEAMDGVALQCERRGLTNAATWLSEMSLHALPSLLATPLQACSYGGHGGNSLFSPLHRAIHLDSGVFGDHAIAGGVRSTPSAGWQRLHRVALGYFIKGEYQRCHHLILREVMRNTAVGSSCGVPLPSTTQRTWPMPAGEVPDNEGGLSLPLPEVVRGFRTTTLPPLLQFLSLYALFMDGVKAKQLSNNASQGGGAESSSMGRGGQQRALHPHARVLRAYLLEAMRNPVNMLNLPSSNNSDPEPQHGDGGDDGAALHVAVGGALPGAHHTSSAKRPWTTSSAVWLASRAVSAATTTGTAAVMTAGASASRPRGNKAGQLHARYSLPLHCCLVCLLERLSSRLSSRESSGSARRRIGSGTYVGLVAYRSVPVVAHGCSAAGTSHAPGKCDVSAGGGECQPTTAVRLGRPRVPRES”, which “soluble on expression in E. coli” value is on record?
A: The value was “not soluble”.

Reference: the DeepSol protein solubility set
